Molecular target: a representative mIgG1 mAb (used for the KD determinations; not told which) (mouse)
Assay: SPR; BIAcore 2000; mIgG1 mAb immobilised on CM-5; Z variants serially diluted 250 nM to 64 µM; KD for 1:1 interaction from equilibrium response values

Substance | Kd [µM]
ZF5I, Z domain variant with Phe to Ile substitution at position 5 (designed binder) | 10
ZF5R, Z domain variant with F5R substitution (designed binder) | 10
wild type Z domain (ZWT), staphylococcal protein A-derived 58-residue three-helix bundle domain (designed binder) | > 100

Source: article PMC3570467
